Results taken from a protein production outcome set (Wang et al. 2014).

Assay: label from the status in PepcDB records

Sequence	protein production
MARFALVLHAHLPYVRAHGMWPFGEETLYEAMAETYLPLIRVLERLRAEGVEAPFTLGITPILAEQLADARIKEGFWAYAKDRLERAQGDYQRYRGTALEASARHQVAFWELTLDHFQRLSGDLVAAFRKAEEGGQVELITSNATHGYSPLLGYDEALWAQIKTGVSTYRRHFAKDPTGFWLPEMAYRPKGPWKPPVEGPPEGVRPGVDELLMRAGIRYTFVDAHLVQGGEPLSPYGEAALGPVESQEATYHVHELESGLRVLARNPETTLQVWSADYGYPGEGLYREFHRKDPLSGLHHWRVTHRKADLAEKAPYDPEAAFAKTEEHARHFVGLLERLAGRHPEGVILSPYDAELFGHWWYEGVAWLEAVLRLLAQNPKVRPVTAREAVQGPAVRTALPEGSWGRGGDHRVWLNEKTLDYWEKVYRAEGAMREAARRGVLPEGVLRQAMRELLLLEASDWPFLMETGQAEAYARERYEEHARAFFHLLKGASPEELRALEERDNPFPEADPRLYLFREA	not failed
MEVRGYKTEVALGKSSNSLLAGGLERRWQRLSGGCLGLLLMLPAVAAAAVYVPNAGQAMRDIQATQPALPEQPAPELDLPAKPPSAPAQAPDTSGIRLQVNDFVIVGNQVFSNETLQALLADLKGQELDLNQLRAAAERLTTYYQNQGYMLARAFLPAQDIEDGVVRIEVMEGRYGRIQVNNQSRALNSVITGPLSSLHSDTAVRSEDLERSLLLLSDLPGVRVKGTLSAGEQRGTTDLLVNAQPGPWASGTLEADNFGGYYTGEYRLGGSLNLNNPLRLGDQFNLRLLGSDEDQRYYRAAYKLPLGPWSTSVGVAYSRMNYELSRDFEVLEAHGQASIGSVFITQPLIRSRTFDLSAQLQYEDKRLRDDIDLFEVSSQKHVELWSLSLNGNSQDSLLGGGQNFFYLTYGSGRLSIDDPMDQWRDHFTAGTNGGFQKLNLNAARLQYLSPRFQLYGQFNGQWSSTNLDSSEKFGIGGPFDVRAYPQGTSSGDQGWQASLELRFLLAPRWQLKAFVDHGAVQVNKSPWIHDENRRQLSGAGVGASWSGPSQQISVTSAWALDNNQEGSGPERTPRIWASATQYF	failed
SEPGEELEEEGSPGGREDGFTAEHLAAEAMAADMDPWLVFDARTTPATELDAWLAKYPPSQVTRYGDPGSPNSEPVGWIAVYGQGYSPNSGDVQGLQAAWEALQTSGRPITPGTLRQLAITHHVLSGKWLMHLAPGFKLDHAWAGIARAVVEGRLQVAKVSPRAKEGGRQVICVYTDDFTDRLGVLEADSAIRAAGIKCLLTYKPDVYTYLGIYRANRWHLCPTLYESRFQLGGSARGSRVLDRANNVELT	not failed
MAKITVGTENQAPIEIYYEDHGTGKPVVLIHGWPLSGRSWEYQVPALVEAGYRVITYDRRGFGKSSQPWEGYEYDTFTSDLHQLLEQLELQNVTLVGFSMGGGEVARYISTYGTDRIEKVVFAGAVPPYLYKSEDHPEGALDDATIETFKSGVINDRLAFLDEFTKGFFAAGDRTDLVSESFRLYNWDIAAGASPKGTLDCITAFSKTDFRKDLEKFNIPTLIIHGDSDATVPFEYSGKLTHEAIPNSKVALIKGGPHGLNATHAKEFNEALLLFLKD	not failed
YCKTIPMPDLAYSEISVIGKLIRALPEPCALHLANSSTVRYAQLFTVPPQVEICCNRGVNGIEGSLSTAIGYAAASSKLNFIIIGDLSFFYDMNALWNQNYGANIRILLLNNEGGEIFHTLPGMDKSSRSREFITAEHYTTAKGWAEERGFIYMKVTGEEELEEAMQPFTSPETRMQPMLLEVFTDKEKDTTLLREYYHGLKNKNE	failed
MRHGEIARAARSAVPRRARAALPLACAALVAAGLAARAAGAAAPPPAPPAAAPARVLSAAVKGPITGGTVEYLEAALARARTGGFAALVVTLDTPGGQLDATREIVQAMLATEVPVIVWVGPAGARAGSAGVFLTLAADVAAMHPTSNIGAAHPVTGAGKDVAEEAGKDMAKKVENDTAAFARSVAAARGRNADWAEKAVRESVSVTAEEALRLKVADLTAADLPELLAKADGRKVGQGAAARPLKVAGAAIEPYEPTVRQRLLGFLADPNVMAILMLVGMLGIAVEFYHPGMIFPGAVGGFCLFLAFLAMRVIPVNVGAVILLLAGVGLLVAEAYVTAHGLAGLAGAACLVLGTLFFVNTSAPGDWFDPGALRLSPWVIWPTPAALALLLAFMAWNVARVRRAPLQLGAPALVGAPGEALSEIGPAAGEAFVHGEYWQARSAAPIPRGAAVRVVAVEGLTVTVVAAGPGNG	failed
MNKKILLIGGGGHCKSVLDSLLDLDEYDDIGIIDTKENVGKAVLGTPILGYDRDLPSLYKDGYHYAFVAVGSIGNPSVRIRLFNTLCEMGFIIPNIVDASAKVSKHSQIDKGVFIGKHVVVNAGAVIGQGAIINSGAIVEHDCEIGEFVHIAPGTVLCGGVKIGRHSHIGTNSTVKQGIHIGSNCLIGMGSVVTKNIRDNVIAYGNPCREVKNLLEHHHHHH	failed
MCMLEPSKIFKALSNPINLKILTLLRSSSFHPRELARILNRDETDISRRLRQLERLGLIKGKWERVDGKNVRVYSLKVSEIRIFMHPTKLEVKVGENESYEAPIEWESSPRVEVFVGRKRELSIIRNAKGVVVIYGIAGIGKTSLAAKAFPNAYWYNVTGLEDFKYFAWQLGLFLSSIGFEDLLEYLRGGGNNENDIFKLITEGIEKTGAIIIIDDFHKFQDEKVNYLLSYLAPRIKKGKVIITTRIRPNLGNEGVTYVNLKGLNPEEAYSLAREKEKSMTPEEFAKLYKLTFGHPLMLNLILESSEILATGKDTVFNFLFEEVYQMLNEEEKDLLSILSLFDEPIEYEGIKFLYDRNPFVPLYSLMKKGLIEKKGEKYFVHDMVREFVREVSNQEEKEVYLRHVNFLLKSKTPINFLRAFKYAIKVGSSELIRNLVELRVKEFYRIIVDFPRMYQRLLMEVEDNPYAKIEIAIIEVQRGLFEKAIKLLKEAEPYVDEFFKCEIYSWLADAYMELENLEKAERYLKKTKEIVEKINDMYAWFSYYAEKTKYEYYKENSREALKSALKELEIIRKIGDPEKEGLVLLHVGDIYLHMGNYEKGISYYQEALKMAKAYGIKFLEHISYMELAKGYYQLKLYEKASEYSEKAANYFLMIRNYRRATDAMAYGSVSYIATKNLEKAEKFAKEMIRIAQSTDYPLAWAGYIFLAAVDFLKGDDWREDYNLGKAHLKEYPWLFEAVLDELKKVFDLSNFK	failed
MQTKKNEIWVGIFLLAALLAALFVCLKAANVTSIRTEPTYTLYATFDNIGGLKARSPVSIGGVVVGRVADITLDPKTYLPRVTLEIEQRYNHIPDTSSLSIRTSGLLGEQYLALNVGFEDPELGTAILKDGDTIQDTKSAMVLEDLIGQFLYGSKGDDNKNSGDAPAAAPGNNETTEPVGTTK	failed
MTNHQKRLAVPKSWPVERKEEAYTTKAAAGPHGEEGVPLLIVLRDVLGYVDSKKEARYALEQDSILINGTAVSDERRPVGMFDILAFDEREEYYRIFPDEGGRLSLTPIDEDAAGSKLGKIVGKTQVAGGDTQLSLHDGETLLVEDATAYDTNDSIVVSNDGEEIVAHFTYEEGALVTAVSGAHAGRIGTIDEIQVTPGSSANNVLIDAENDDERFETVEEYVVVIDENFTDGGDDE	failed
MEAATWILFTLGVSLILAKIGDSLVERFELPGVLGELLVGIILGNLVYFGVISSEYLPITAGSSEVIDFMAKLGVVFLLFLGALDTDLNLIKRTGITAVVSTILGVFVPLILGYLGLRWLGYDNKEAFAGGVLLTATSIGLTVRVMMDLGVLRSEVGAASLSASVIDDFLGIALIIFAVGSGSLLGLGIKIIIFFLITGVVGWYFIDHYLKFAERLGVEKGVLGFVLGMMLIFSALAEGWFAAAIEGAFMMGLILSKTAEGKRLLEEVRSIGYGFLIPIFFVHTGAMLNFKVFENLEAIKLAVVLSVIAIVGKVAGRGFGAWITAWGRGKDFLFTRENFRMSFQMGIGSIPRTEVALVALMVAIHGGAISPDDAPKFIAATLIFITISVLITPPLLKWAFREEILAQKKLLLENRKEKIESKKRGTR	failed
MTDAPLGRSAVYTILTTGYVGSTGPGVAATVSYVADGGRHVVFDPGMVASRDHILGPLAELGLGPDDITDVVLSHHHPDNTMNVGLFGRATVHDHKVEYLGDQWRNRDAEGYELTPSLRLIRTPGHSLEDITLLAGTDTGVVAFAGDLWWHSDGPADDPVAPDREVLRASRLRVLAAADLIVPGHGSPFKADITAPRLEHHHHHH	not failed
MASTIQALPQEVVYLITAGEVIDSFAAVVRELVENSLDAGANRIVVYLWPQQWRVRVADNGCGMNLDDLQQAASAHSTSKIRSSADLWKIHSLGFRGEALHSLTTLADVEIISRAPENVGWRVVYGDSGKAVHVEATAIAPGTVVTVSNLFASCAARRQGLPTTAQQMKAVQATIQQIALCHPQTTWQVWQNDRIWFTISPAATAGQLIPQFLPQLRPSDLQEIKLEIPNPENPQLSTNNKPNASALALVVGLPDRCHRHRPDWVRVAINGRMIKLPELEQTILAAFHRTLPRDRYPLCFVHLLISPDQINWNRNPAKTEIYLHDLSYWQEQVTQAINQALRISAANIPESVQTTRVSQLLKAAEEKGNYNFNPRNANPADNTQNYLKAVAQVSNTYIVAEHPGGMWLVEQHIAHERVLYEQLCDNWRLIPVEPPIILYQLSPAQVAQLQRIGLDIDIFGEQLWAVRNLPAMLQQREDCAEAILELSWGGDLQTAQVAVACRSAIRNGTPMSLPEMQKLLDDWQRTRNPRTCPHGRPIYLSLDESSLSRFFRRHWVIGKSHGI	failed
GYAVSVRVGGKEHRHWERYDIDSDFLIPADSFDFVIGRLGPEAAIPDLSGESCEVVIDGQIVMTGIIGSQRHGKSKGSRELSLSGRDLAGFLVDCSAPQLNVKGMTVLDAAKKLAAPWPQIKAVVLKAENNPALGKIDIEPGETVWQALTHIANSVGLHPWLEPDGTLVVGGADYSSPPVATLCWSRTDSRCNIERMDIEWDTDNRFSEVTFLAQSHGRSGDSAKHDLKWVYKDPTMTLHRPKTVVVSDADNLAALQKQAKKQLADWRLEGFTLTITVGGHKTRDGVLWQPGLRVHVIDDEHGIDAVFFLMGRRFMLSRMDGTQTELRLKEDGIWTPDAYPK	not failed
MPQITIIVPVYNAERTLERCVRSIQAQTVVNWELLLIDDGSEDYSSKLCDEYAIQDSRIRVFHQVNGGASSARNVGLEYTKGEWVVFCDSDDWVDSNWLELFKNQIDNGTELIVQGFIPHGNLWQSRTGINFHGNVKTGILKLQEENILGFMCTKMYKREIIEQCGLRFDTELVLREDELFMLQYAEYISTIQCMEEGAYHYDMPDFSTKYGNIDLFNMFLKIYVVLKRIFSGEDNLLLQNYENDLTQSLFHSFVMRHDDRCKKLENYRKEVGKRVLGVKSLSQFSKYILAYVPSFQVAYLLLEAKAKIVKSMQLEHHHHHH	not failed
MTLYTNDYLEFYLTLVGWLINNGIWDMISDTGLFALPFLIIVVREWIKVRQEGADEGNKGVLSLARIETQLYIGYVVVSLCAIPVMSVGFDTLQFDQTRAKQCQVLLPAPGDTGWNTTFSSLTGKSARIPIWWAVMHSLSKGLNSGAVAAIPCGTDLRQMRMDVDAIRIDNPLLAQEVADFTHDCFGPSRARLFMRQPDLGAITKDPKTLQDLNWIGSRFLLNTSGYYDTDYSKTPRTAWPYDAKRDDGLPQVTGGGGYPTCKQWWSDGSIGLRDRLQAQVDPTLMNKLLGWAKWLSKDEVTDSMIRQVVSPSSQVNGDVYSDYGGQIGGTMWNGLARAGGTLGVGVGSLAYFPGMDIVRQALPMVMAFLKMAMVICLPLVLIIGAYQLKVAMTMSVVFFALIFVDFWFQLARWVDSTIIDVLYGSGSPHLSFDPVMGLNTTTQDAILNFVMGAMFIILPLFWMSALAWAGVQVSGVLEGLSRGTQSVERAGASGGGIAQQAVGSIGGKS	failed
MDGQQLNRLLLEWIGAWDPFGLGKDAYDVEAASVLQAVYETEDARTLAARIQSIYEFAFDEPIPFPHCLKLARRLLELKQAASCPLP	not failed
